The results in this text go back to the supplement of paper PMC6755084.

For this data set, the system named is F1*sub RNA substrate (template-directed ligation). The experiment in a line: fraction ligated after 30 min (ligated reads / total reads); higher = more ligase activity; sequences stand for … in GAGACCGCAACTGAAAAGTTGT…AGTTCTGCACGTAGAAGCAAAAGGC
The following applies: 42 °C. The method in brief:
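Ligase ribozyme variants were made from oligo-pool templates by PCR amplification, T7 transcription and gel purification. After gel separation, ligated and unligated bands were reverse transcribed with barcoded primers and sequenced on a MiSeq, with core bases filtered at quality ≥20. The fraction ligated for each variant was the number of ligated reads divided by total reads.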
Take “TATCATTGTCGTAAGACACTTTGATGGGTTA [3d1280]”: the fraction ligated was determined as 0.158.

On to “TATCACTGCGTAAGACACTTTGGAGGGTTGA [3d1339]”, for which the fraction ligated was found to be 0.0829.

In the case of “TATCATTGTGTAAGACACTTTGGATGGGTTA [3d1185]”, the fraction ligated was 0.677.

For “TATCACTTGTCGAAGACATTTGGTGGGTTGA [3d1952]”, the fraction ligated turned out to be 0.05.

As for TACACTTTCGTAAGACCTTTGGATGGGTTGA [3d592], the fraction ligated came to 0.0278.

In turn, ATCCTTGTCGTAAGACACTTTGGATGGGTTG [3d85] returned a fraction ligated of 0.716.

For the sequence TATCCTTTCGTAAGCACTTTGGATGGGTTGA [3d973], the fraction ligated is 0.77.

The sequence “TATCATGTCGTAAGACACTTTGGATGGTTGA [3d1137]” had a fraction ligated of 0.268.

“TATCACTTGTCGAGAACTTTGGATGGGTTGA [3d1905]” displayed a fraction ligated of 0.819.

As to ATACTTGTCGTAGACACTTTGGATGGGTTGA [3d54], the fraction ligated was determined as 0.0939.

In the case of “TATCACGTCGTAAGACCTTTGGATGGGTTGA [3d1302]”, the fraction ligated worked out at 0.786.

In turn, “TATCCTTGTCGTAGACACTTTGGATGGGTTA [3d1053]” registered a fraction ligated of 0.398.

ATCATTGTCGTAAGAACTTTGGATGGGTTGA [3d95] returned a fraction ligated of 0.802.

TACACTTGTCGTAAGACACTTTGGATGGGTT [3d736] registered a fraction ligated of 0.00884.

TTCACTTGTCGTAAGACACTTTGGATGGTTG [3d505] had a fraction ligated of 0.681.

With “TATCACTTGTCGTAAACCTTTGGATGGGTTG [3d2073]”, the fraction ligated is 0.793.

In turn, TATACTTGTCGTAAGACATTTGGATGGTTGA [3d922] showed a fraction ligated of 0.0978.

In turn, TTCCTTGCGTAAGACACTTTGGATGGGTTGA [3d300] yielded a fraction ligated of 0.779.

Take “TATCACTTGTCTAAGACACTTTGGATGGGTTG [2d207]”: the fraction ligated came out at 0.825.

As for “TATCACTTGTCGTAAGCACTTTGATGGTTGA [3d2138]”, the fraction ligated was determined as 0.157.

The sequence TACATTGTCGTAAGAACTTTGGATGGGTTGA [3d556] showed a fraction ligated of 0.0064.

On to TTCACTTGTCGTAGACATTTGGATGGGTTGA [3d434], for which the fraction ligated was 0.742.

With TATACTGTCGTAAGACCTTTGGATGGGTTGA [3d787], the fraction ligated was 0.765.

In turn, ATCACTTGTCGAAGACCTTTGGATGGGTTGA [3d189] yielded a fraction ligated of 0.75.

“TATCATGTCGTAGACACTTTGGATGGGTTGA [3d1127]” came in with a fraction ligated of 0.817.

With “TATCCTTGTCGAAGACACTTTGATGGGTTGA [3d1036]”, the fraction ligated came to 0.781.

TATCACTGCGTAAGCCTTTGGATGGGTTGA [s2] returned a fraction ligated of 0.814.

On to TACATTGTCGTAAGACACTTTGGTGGGTTGA [3d561], for which the fraction ligated was determined as 0.144.

For the sequence TACACTTGCTAAGACACTTTGGATGGGTTGA [3d602], the fraction ligated came out at 0.196.

As to “TATCACTTGTCGTAAGACACTGGTGGGTTGA [3d2233]”, the fraction ligated turned out to be 0.00438.

“TATCACTTTCGTAAACACTTTGGTGGGTTGA [3d1524]” displayed a fraction ligated of 0.0319.

Sequence “TATCACTGCGTAAGACACTTTGGTGGGTTGA [3d1338]” showed a fraction ligated of 0.119.

In turn, “TATCCTTGTTAAGACACTTTGGATGGGTTGA [3d1000]” came in with a fraction ligated of 0.793.

The sequence “TATCACTTGCGTAAGACACTTTGGAGGTTGA [3d1698]” displayed a fraction ligated of 0.0604.

TACACTTGTCGTAAGACACTTTGATGGGTTG [3d726] registered a fraction ligated of 0.0988.

Sequence “TATCACTGTCGTAAGAACTTTGATGGGTTGA [3d1420]” yielded a fraction ligated of 0.652.

On to “TATCACTTGTGTAAGACACTTTGGAGGTTGA [3d1803]”, for which the fraction ligated amounted to 0.0314.

As to TTCACTTGTGTAAGACACTTTGGAGGGTTGA [3d398], the fraction ligated is 0.105.

With “TATCACTTTCGTAGACCTTTGGATGGGTTGA [3d1510]”, the fraction ligated worked out at 0.78.

For the sequence TTCACTGTCGTAAGAACTTTGGATGGGTTGA [3d345], the fraction ligated came out at 0.788.

On to “TATCACTTGTCGTAAGCACTTGGAGGGTTGA [3d2131]”, for which the fraction ligated worked out at 0.072.

Sequence “TATCATTGTCGTAGACACTTTGATGGGTTGA [3d1221]” returned a fraction ligated of 0.774.

The sequence “TATCACTTGCGTAAGAATTTGGATGGGTTGA [3d1659]” displayed a fraction ligated of 0.835.

In the case of TTCACTTGTCGTAAGACATTTGGATGGGTTG [3d483], the fraction ligated was 0.731.

TCACTTGTCGTAAGACACTTGGATGGGTTGA [3d17] registered a fraction ligated of 0.419.

“TATCACTTGCGTAAGACATTGGATGGGTTGA [3d1674]” gave a fraction ligated of 0.802.

As for “TATCACTTGTTAAGACACTTTGGTGGGTTGA [3d1713]”, the fraction ligated came to 0.111.

Sequence “TATCACTTGTCGTAAGACACTTGGTGGGTTA [3d2246]” yielded a fraction ligated of 0.0114.

“TATCACTTTCGTAACACTTTGGATGGGTTGA [3d1507]” gave a fraction ligated of 0.796.

As to TATCCTTTCGTAGACACTTTGGATGGGTTGA [3d971], the fraction ligated is 0.766.

Turning to TAACTTGTCGTAAGACACTTTGGATGGTTGA [3d525], the fraction ligated is 0.309.

In turn, “TATCACTTGTCTAAGCACTTTGGATGGGTTA [3d1854]” came in with a fraction ligated of 0.712.

For TACATTGTCGTAAGACACTTTGGATGGGTTA [3d564], the fraction ligated worked out at 0.0607.

In turn, TATACTTGTCGTAAGACATTTGGATGGGTTA [3d923] yielded a fraction ligated of 0.0964.

The sequence “TATCATTGTCGTAAGACACTTTGATGGTTGA [3d1279]” yielded a fraction ligated of 0.027.

The sequence “TATCACTTGCGTAGACACTTTGGATGGGTTGA [2d166]” returned a fraction ligated of 0.835.

For the sequence TACACTGTCTAAGACACTTTGGATGGGTTGA [3d570], the fraction ligated is 0.266.

In turn, “TATCATTGTCGTAACACTTTGGATGGGTTGA [3d1215]” displayed a fraction ligated of 0.815.

The sequence ATCACTTGTCGTAAGACACTTGGTGGGTTGA [3d255] gave a fraction ligated of 0.00771.

Sequence “TATCACTTGTCGTAGACACTTTGGTGGTTGA [3d2049]” yielded a fraction ligated of 0.0676.

TTCACTTGTCGTAAGACACTTTGGTGGGTTA [3d499] returned a fraction ligated of 0.00711.

Consider “TATCACTTGTCTAAGACACTTTGGAGGGTTA [3d1896]”, for which the fraction ligated was found to be 0.134.

With ATCCTTGTCGTAAACACTTTGGATGGGTTGA [3d74], the fraction ligated was determined as 0.789.

For the sequence TACACTGCGTAAGACACTTTGGATGGGTTGA [3d568], the fraction ligated was found to be 0.177.

TATACTTGTTAAGACACTTTGGATGGGTTGA [3d828] yielded a fraction ligated of 0.793.

For TATACTGTCGTAAGAACTTTGGATGGGTTGA [3d786], the fraction ligated amounted to 0.809.

Consider ATCACTTGTCTAAGACACTTTGGAGGGTTGA [3d181], for which the fraction ligated was 0.155.

With ATCACTTGTCGTAAGACACTTTGAGGGTTGA [3d262], the fraction ligated amounted to 0.0273.

In turn, TTACTTGTCGTAAGACATTTGGATGGGTTGA [3d290] displayed a fraction ligated of 0.517.

Regarding “TATCACTTGCGTAAGACATTTGGAGGGTTGA [3d1677]”, the fraction ligated came out at 0.0596.

“TATCACTGTGTAAGCACTTTGGATGGGTTGA [3d1347]”: the fraction ligated is 0.878.

The sequence “TATCACTTGCGTAGACACTTTGGATGGTTGA [3d1636]” registered a fraction ligated of 0.296.

TATATTGTCGTAAACACTTTGGATGGGTTGA [3d765] returned a fraction ligated of 0.367.

Take TTCACTTGTCGTAAGAACTTTGGTGGGTTGA [3d465]: the fraction ligated amounted to 0.019.

TTCACTTGTCGTAAACCTTTGGATGGGTTGA [3d443] showed a fraction ligated of 0.514.

With “TATCACTTGTCGTAAGAACTTTGAGGGTTGA [3d2168]”, the fraction ligated came to 0.0393.

Consider TTCACTTGTCGTAAGACACTTTGGGGGTTGA [3d497], for which the fraction ligated worked out at 0.0262.

In the case of “TATCACTTGTCGTAAGAATTTGGATGGGTTGA [2d254]”, the fraction ligated is 0.8.

With “TATCATTGTCGAAGCACTTTGGATGGGTTGA [3d1203]”, the fraction ligated worked out at 0.784.

In turn, “TATCCTTGTCGTAAGACACTTTGATGGGTTG [3d1109]” showed a fraction ligated of 0.749.

Turning to TTCACTTGTCGAAGACACTTTGGATGGTTGA [3d426], the fraction ligated came out at 0.578.

For the sequence TTCACTTGTCGTAGACACTTGGATGGGTTGA [3d435], the fraction ligated came out at 0.489.

“TATCCTTGTGTAAGCACTTTGGATGGGTTGA [3d1004]” registered a fraction ligated of 0.788.

“TATCACTTTCGTAAGACACTTTATGGGTTGA [3d1568]”: the fraction ligated amounted to 0.0429.

Consider “TATCACTTGTCTAAGACACTGGATGGGTTGA [3d1878]”, for which the fraction ligated is 0.787.

As to “TATCACTTTCGTAAGACACTTTGATGGGTTG [3d1573]”, the fraction ligated turned out to be 0.731.

ATCACTTGTCGTAAGACATTTGGATGGGTTA [3d251]: the fraction ligated was 0.66.

Consider “TATCACTTGCGTAAGCACTTTGGAGGGTTGA [3d1655]”, for which the fraction ligated worked out at 0.178.

In turn, TACACTTTCGTAAGACATTTGGATGGGTTGA [3d593] gave a fraction ligated of 0.292.

As for “TATCACGTCGTAAACACTTTGGATGGGTTGA [3d1299]”, the fraction ligated was determined as 0.787.

Sequence “TATCACTTGTCGTAGACACTTTGGGGGTTGA [3d2048]” showed a fraction ligated of 0.0891.

The sequence “TATCATTGTCGTAAGCACTTTGGATGGGTTG [3d1246]” registered a fraction ligated of 0.767.

Regarding “TATCACTTGTCGTAAGACCTTTGGAGGGTTGA [2d265]”, the fraction ligated was found to be 0.072.

As for “TATCACTGTCGTAAACATTTGGATGGGTTGA [3d1400]”, the fraction ligated was 0.822.

As to “TATCACTTGTGTAAGACACTTTGGAGGGTTA [3d1804]”, the fraction ligated worked out at 0.0394.

Sequence TTCCTTGTCGTAAACACTTTGGATGGGTTGA [3d305] returned a fraction ligated of 0.786.

With “TATCACTTGTCGTAAGACACTTTGATGGGTTA [2d287]”, the fraction ligated was 0.167.

TTCACTTGTCGTAAAACTTTGGATGGGTTGA [3d442] registered a fraction ligated of 0.623.
